Experimental data reported in patent US20190359653A1, “SELECTIVE PEPTIDE INHIBITORS OF FRIZZLED” (Genentech, Inc., priority 2016, published 2019).

Target: FZD7 class proteins
Assay: ELISA of biotinylated Wnt binding to FZD CRD-Fc with or without peptide

- fold enhancement of binding by Fz7-21 or dFz7-21: 1.5 to 2 fold
Substance: Biotinylated Wnt3a (from UniProt P27467 19-352) (ligand)
